Laboratory results published in the supplement of paper PMC10567573.

B1: EHMT1 (parent)
chain: EEINKNISDFGRQQLLPPFPSLHQ

Variants of: B1
Experiment: protein stability index of a GFP-peptide fusion (GPS, HEK-293T) (PSI 1-6); higher = more stable
Conditions: c terminus: a fixed tail appended
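Further: lentivirally expressed fusions sorted by FACS into six bins by GFP to DsRed ratio, PSI derived from sequencing read proportions per bin multiplied by bin number.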

In order of falling protein stability index:
1. F19D  4.42
2. F19P  4.41
3. F19E  4.39
4. F19Q  4.38
5. F19N  4.37
6. F19C  4.24
7. F19M  4.19
8. F19S  4.19
9. F19R  4.1
10. F19G  4.05
11. F19T  4.04
12. F19A  4.02
13. L16D  4
14. F19K  3.99
15. P17E  3.87
16. L16G  3.85
17. L16Q  3.83
18. L15D  3.81
19. F19V  3.76
20. L16S  3.73
21. P20E  3.73
22. L16E  3.72
23. L16N  3.71
24. F19H  3.69
25. P18E  3.66
26. L15E  3.65
27. P18Q  3.63
28. L15V  3.62
29. F19I  3.61
30. L16A  3.57
31. P18R  3.57
32. F19L  3.54
33. R12T  3.52
34. R12N  3.5
35. L16T  3.5
36. P20D  3.5
37. P18D  3.46
38. Q13P  3.4
39. R12P  3.38
40. Q13E  3.38
41. L15G  3.37
42. P20G  3.37
43. P18K  3.36
44. L16P  3.34
45. P18V  3.34
46. L16V  3.33
47. L16H  3.32
48. P20N  3.32
49. P18G  3.31
50. P20Q  3.31
51. L15Q  3.3
52. P20K  3.3
53. F19Y  3.29
54. L15R  3.28
55. P18A  3.28
56. P17Q  3.27
57. L16C  3.26
58. R12V  3.25
59. Q13D  3.25
60. L16R  3.23
61. P17S  3.22
62. P20S  3.22
63. Q13A  3.2
64. P18C  3.16
65. R12G  3.15
66. L15T  3.15
67. P18H  3.15
68. R12S  3.12
69. P18S  3.12
70. P17K  3.09
71. L15K  3.07
72. P18L  3.07
73. R12K  3.06
74. P18W  3.06
75. L16K  3.05
76. P18N  3.05
77. P20V  3.02
78. P20T  3.01
79. Q13G  3
80. Q14E  3
81. R12Q  2.97
82. L15Y  2.97
83. L15H  2.96
84. P18M  2.95
85. Q13M  2.94
86. P17R  2.94
87. P18Y  2.94
88. R12I  2.93
89. Q14G  2.92
90. L15P  2.92
91. P18T  2.92
92. P18F  2.91
93. L15N  2.87
94. P18I  2.87
95. P20C  2.87
96. R12Y  2.86
97. L15I  2.85
98. Q14D  2.84
99. Q14K  2.84
100. P17C  2.84
101. P17G  2.83
102. L15S  2.82
103. L16I  2.82
104. P20A  2.82
105. L15A  2.81
106. L16M  2.79
107. P17A  2.79
108. R12H  2.77
109. Q14I  2.77
110. Q14V  2.77
111. Q13S  2.75
112. R12L  2.74
113. Q14A  2.74
114. P17D  2.74
115. P20L  2.73
116. L15M  2.71
117. Q13Y  2.7
118. P20H  2.69
119. P20I  2.69
120. Q13N  2.65
121. L16W  2.65
122. Q14S  2.62
123. P20F  2.61
124. Q13K  2.59
125. P20Y  2.59
126. Q13T  2.56
127. Q14N  2.54
128. L15C  2.54
129. P17N  2.54
130. P17Y  2.54
131. P17H  2.52
132. P20M  2.51
133. Q13F  2.5
134. L15W  2.5
135. P20R  2.5
136. Q14M  2.49
137. Q13L  2.48
138. R12M  2.47
139. Q13V  2.45
140. Q14R  2.45
141. Q14T  2.45
142. L16Y  2.45
143. Q13R  2.42
144. L16F  2.42
145. P17T  2.41
146. Q14P  2.39
147. Q13H  2.32
148. Q14L  2.31
149. L15F  2.31
150. Q14H  2.29
151. P17M  2.27
152. R12W  2.24
153. R12F  2.23
154. Q13W  2.23
155. P17L  2.21
156. Q13I  2.19
157. Q14C  2.18
158. P17V  2.18
159. Q13C  2.06
160. Q14W  2.03
161. Q14F  2.02
162. P17F  2.02
163. P17W  2.02
164. F19W  2.01
165. P17I  1.82
166. P20W  1.82
167. Q14Y  1.78
